Measured values: the DeepSol protein solubility set

Test: soluble on expression in E. coli; label from the status in PepcDB or PDB records

Sequence	soluble on expression in E. coli
MGSDKIHHHHHHMIKALYTSITGMNATQNALSVTSNNIANAQTVGYKKQKAMFDDLLYNNSIGAKGDDRYAGTNPKSIGNGVKMSGTVTDYTDGTITLTGGKTQAAMEGNGFFVVGDSKAGNMEFTRKGTFTISSDYYITNTEGQYVFAYPADPSTGNVDLSGIPGPLQVPMGSAIGGIRTSKGVVGGNIPADAKQITQELPVYDNAGNTWTMRVEFKQDGEHNYKYKVYMRNESKKETAFNEVNGAGGEVKFDAVGKPDPVNPEANIPFNGGTVKIDFSKLTNHPTEKTLAVTDVDGRAAATVKDCFIADGGYVMVKYSDGSMKAAGQLAVAMFPNEGGLMKTGNGNYTATNTTGILAMGVSGQNGAGKVRGSAQEGANVDLSVEFVDLMLYQRGFQGNAKVIKISDEVLNEVVNLIR	not soluble
MGSDKIHHHHHHMIKDTVFFAPGVSGGSNASSLSSRHRRAAIILHEIYGINAHIQRAGHEWMTRGFDIYIPALFPHHTPFRYEQQEEAYRHFSANVGFDPAVVTTLLHDLRTQYETLIVVGYSVGATLAWLSAASGLCDGVVCYYGSRIRQYLHLAPLCPTLVIVARYEPAFDPLAMRQALEKRPRVQCKMYDARHGFCDADSATFDAALSHQVMDDVTAFIRDITCANTSPDFQL	not soluble
MGSDKIHHHHHHMIKKIYFIMVVIGSILLSSCDSYLDIQPVGQVIPTTLTEYRALLTTAYGLKLIDKSVTEFRTDIAMVTDNSNSQNFYSEIEKWNDMSPKDGTREFGWAVYYSVIYYANAIIANKDNIKEGSQEDIDQLVGEAYLLRGYMHFILANLYGQPYTKEGAPETKSIPIKWDLDLEVVLPRNTVKEVYTAILSDIESARGLMHQKEWEAVYAYRFSTLSVDAMESRVRLYMGNWKEAYDAAERILVQKSTLEDLNDPEAKLPNNYTSAEMITAYEFFNDDVTSASILIPAFMEKYDANKDLRRNKYYSLSGDKYISKKSGKAEHNCTFRTGEIYLNAAEAAAQMNKLPEARTRLLQLMEKRYTPEGYAEKKKAVDAMNQADLIKEILEERALELAFEGHRWFDLRRTTRPRIEKVLNGQAYLLEQDDSRYTLRIPQSAIAANPGLLN	not soluble
MGSDKIHHHHHHMIKLFIVACGYIIYKLGRYCKENEYYMASLLMLQYHKSLSAERQQILYTNFTYYKKLSEKKKLEFEKRVQHFLTNKSFIASDGFEITEQMKVMIAATAVQILFCRKAYYLSSFDFIELFEEVPVHVEVMRKKRIIQISWNEFKKGFDSLIDGYNPGLKIMAMALDLEHKFGEKSLFSQQTYKAFQKIYKQEAEKYILSGKSKYDHYNKVDRTEYFAVAVEYFFERPEHFNVNQPAMYLALSKLLRQDPLGMYTYKEKVFE	not soluble
MGSDKIHHHHHHMIKRAVEIVRQRGVGVLIKKIPPYIYQQVWPYLPSAGYTYKNGIKSCERGRVLDQFLPKYITQYATHQPSYESQYIEAIRRHVTEGQDVVLVGGGEGISTVVAANQVQRTGEVTVFEGAAEEARKSQVVVEINEVSDRTTVHHTIVSEDVSLRSAASGAEVLPSAELPSCDVLAIDADGAEISILDGIVNHPAVLIVEHHAVADTSGLALEYQPDRVRDLITNLGYDIVDEMSDPAGAGGGRFEERIYVGKRLAVEPSDLM	not soluble
MGSDKIHHHHHHMINSYLVQQIKGNFLYKPTLEQEKAVKFLADFLFSRQSDSVFLLKGYAGTGKTSLIGALVKTLDQLQQKCVLLAPTGRAAKVFSHYAQHPAYTIHKKIYRQRNFSNDLDNFSLDDNLHQHTLFIVDEASMIANDGLAGAVFGTGRLLDDLIQYVYAGTGCRLMLIGDTAQLPPVGEEESPALSADKLRGYGMEVYEAQLTEVVRQMHDSGILWNATELRRYISEENFLTLPSVRVEGFPDIRMVSGSELIEVINDCYGQAGMDETIVVCRSNKRANIYNKGIRNTILFREDELNSGDLLMVAKNNYFWTEGCKEIDFIANGDIAVVRRVRRVREAYGFRFADVVLAFPDYDGMELEVKLLLDTLHTETPALPKELNDKLFYSVLEDYADITVKRERMKKMKADPHYNALQVKYAYAVTCHKAQGGQWKRVFLDQGYMTEDMLTPDYFRWLYTAFTRATEILYLVNWPKEQTE	not soluble
MGSDKIHHHHHHMIPSQHFQSTPTVQFDLLTYMIGSYHYNWHPQIELLWLLQGTVEVNVDGTRHQLHANDLILINANRGHATFALTPECIALRLHILPDFYTNQGIDLSSGAFLLNSVTTPQHRDYQTIRQILAQLYLGLHQQDWPIFDLNALYFQLTNLLHHDFFDTGITMTYPQPKTQSSLNRVIDYINQAYDRPITLNEAAKISHYSPAYLSRIFKAELGLNFYEYLTRCRLQHAIYDLENPTTRVADLALANGFQEVKSFNLMFKKHFGQTPSSYRQHLSHGQRPEYDQFKQPLTPTQTTIVQKQLNHWAQLTSTDQLSACESCMYKLHFQEYQALKQKIAQLKTLLNQ	not soluble
MGSDKIHHHHHHMIPWVISPYSFDGSVVRFEKLALLLKRKGLKSVILADRNFHAAVKFNTIMRKHGLIPVHGLWKDGRIFVARNREEFDSLVRYYNGETHEIEDIPVFQESELTPVRYLDASEKKASIFMRKIFGLDEDVQGFPEKCEDVADILNAEAYDLRVNHRFPTPPKNWNELLIKKAEPLGEEYISRLKRELEVIKRKGFTPYIYTVEKVVEIAKKMGIKVGPGRGSAVGSLVAYLCGITEVDPIKYDLLFERFLNEERQEPPDIDVDVEDRRRKDLIKELSKSFQVYQVSTFGNLTEKSLKNLINSVLPDASLEEKNEIYKTVYGLPHHPSVHAAGVVISENPLPLPTRTEEDIPITDYDMYDLQEIGVVKIDILGLKTLSFIKDFKKEIFDYSDEKTYHLISKGKTLGVFQLEGLQARKLCRRISPRNMDELSILLALNRPGPLRSGLDVMFSNSKNVPAFFRKMFPETRGVLIYQEQIMRLAMFAGLSGTEADILRRAIAKKEREKMEPLLEKMKKGLLEKGMENAEQILEILLNFSSYAFNKSHSVAYAHITYQTAYLKAHHLEEFFKLYFAYNSSDAGKIFLAVQELRNEGYRVHPPDINISGKDLVFHGKDVYLPLTVVKGVGVTLVEQIEKIRPVSSVRELQERVTGVPRNVVESLITAGAFDKLYENRKLALEELNKRVEKDILEIRSLFGEKVEQESSNIKIGDITELEEKSMGFPLTPVHEVPTGLFARIDDVFTYGRILPVLVKRVSRNIVTDGLSVCRVRTDVPDGVHLVLLSPLQKIIKIWPFNENTRFVYRVDFTATLEKAGQNEITEVLKNGAVVRYEGYRPLTDEYRYRVVPR	not soluble
MGSDKIHHHHHHMIRAGIIGATGYTGLELVRLLKNHPEAKITYLSSRTYAGKKLEEIFPSTLENSILSEFDPEKVSKNCDVLFTALPAGASYDLVRELKGVKIIDLGADFRFDDPGVYREWYGKELSGYENIKRVYGLPELHREEIKNAQVVGNPGCYPTSVILALAPALKHNLVDPETILVDAKSGVSGAGRKEKVDYLFSEVNESLRPYNVAKHRHVPEMEQELGKISGKKVNVVFTPHLVPMTRGILSTIYVKTDKSLEEIHEAYLEFYKNEPFVHVLPMGIYPSTKWCYGSNHVFIGMQMEERTNTLILMSAIDNLVKGASGQAVQNMNIMFGLDETKGLEFTPIYP	soluble
MGSDKIHHHHHHMIRDNIMSQIDLPTDFDFQQAGRQVLEIEREGLAQLDQYINEDFTHACETIFRCGGKVVVMGMGKSGHIGRKMAATFASTGTSAFFVHPGEAAHGDLGMVTPQDVVIALSNSGESNEILALIPVLKRQQVKLICITSRPESSMARAADIHLCVKVPKEACPLGLAPTSSTTAALVMGDALAVALLEARGFTAEDFALSHPGGALGRKLLLRVNDIMHTGDEIPHVGLQATLRDALLEITRKNLGMTAICDDDMNIIGIFTDGDLRRVFDTGVDMRDASIADVMTRGGIRIRPGTLAVDALNLMQSRHITCVLVADGDHLLGVVHMHDLLRAGVV	not soluble
MGSDKIHHHHHHMIRVIDCTLREGCQARQCSFDSAQSVQLAREIAALGVDMIECGHPRISADERERVRAVVAAVSTPVLAHARARREDIDAVLETGAQWVGLFASINAISLETKFKGMNREEVLELFHDAIRYARERGLRVRATVEDAARTSVSDLVSMIATARDAGADRICFADSVGILLPDETFDVLSLLRHEFPDVVFEYHVHNDRGLALGNTLAAIQAGVQWHSASCNGIGERAGITDTFQLLTLLHTKFAADRFNLKNVLAVSELVEAHSRIKRSPMHPVVGENAFVHVARLHQLAMQENQDAYSAFDPELINGRVSLQRYTPMHRQSLFLTPFEKSASELKYHRHGPGKRFVMLDRRLLDGSPFYFIARQFHDVGDGGPGHVDSHVHNCDSVFLFLGSDEDYRGLEVEVLLGGQLRRLQSPASVFIPAGVEHSYRYLGGSGTYINFVHKGDYHESLLEITQ	not soluble
MGSDKIHHHHHHMITENIKKEILRRIRNAEKEHNVKVLYAVESGSRAWGFESPNSDYDVRFIYAHPKDWYVSVDLEYKRDVIEYEIVDEIDINGWDIRKALQLFSKSNPAFVEWIQSSIVYVDDHSFAKGARQLLDTVYSVEKGIYHYRSMAKTNYRGYLKEEIVPIKKYFYVLRPLLSIMWLEKYQKPAPIEFVKLRTLIPTGSTIDQAISDLLERKKRSLEKEYAPAVPVLNAFIESELDRLENYQDSPQRNSSHMESLNSLFRVSIS	not soluble
MGSDKIHHHHHHMITRIEAYKYRCFNTLDLALEQQHVFAGSNGSGKTTLLDIPALFGDLLNMSDINDAFFKPTNGRERARAESAKEVVHQLRGEYFILALEVSLPPSIIEELLRGASDAWQSKFQKSELRPDTARYEISFRINQDKFQVTEEHLTLFPNNELRPEHGMGLIGVDDFRRSAPWFKVLSRSLGTKVKYQAEYQAGKSSILEFGLRDNQLALAALPADHDLYPAALWLQEFLIQGSHCYEPQWPAMRLAASPRDKHAFKADGSSLPWQVHALQQSDPEGLNEWLELVQMALPSIAKIVAKQRIDDSFCYLEVTYSNGMVVPSSGLSHGTLHILALTIIPYLQNAPKIITLEEPENGIHPKAIDAVLEALKLTSDTQLWLSTHSPVVLANTEVEQIITMRFNQDGATEVLKGHEHPRLKTWKGEVDLGTLFAAGVLE	not soluble
MGSDKIHHHHHHMIVERVEEYLDRIEKINKDINALIEVKPEKVLEEAKKLEKDEKAKKKPLYGKIIVVKANINVEGYTISCASKTLENYIAPYDATVIEKIKENGGLIIGIANMDEFACGSSGETSYFGPTKNPRAKDRIPGGSSSGSAAAVSADLCDMALGSDTGGSIRNPASHCGVVGFKPSYGVVSRYGLCDLAMSFDQIGPLTKTAEDALLLTNIIKGKDLRDTTTVETKPFEKKDIKGFKVGVVKEFMDVADEKIRDKVEKAIEVFKDLGCEIVELSYKYVDLALPTYYLINYVEFFSSTRRYDGRRYGYKIEEVCGEEVLRRIMIGSMISQKEYSGKYYKNALKARNLMRNEMIKIMKDVDIIVGATVPKLPHKLGEKLTPMEMYSYDVLTVPANICGLCAGVVPCGDINGIPVGLQIQGKPFEDEKVLSAMIAFEKAME	not soluble
MGSDKIHHHHHHMIVRHKLLADLVRLWKNDQLVEKIDRLPIELSPRKSKPLGRCCVHKERAVWRYKTFPLMGLDMTDEHDEVTPLSEYARMALNRPEPSKENIMCVIDEACSSCVQINYEITNLCRGCVARSCYMNCPKDAIRFKKNGQAMIDHDTCVSCGICHKSCPYHAIVYIPVPCEESCPVKAISKDEHGVEHIDESKCIYCGKCMNACPFGAIFEISQTFDVLQHIKKGEKLVAIIAPSILGQFKTSIEQVYGAFKEIGFTDIIEVAEGAMMTTSNEAHELLEKLEEGQKFMTTSCCPSYIELVEKHMTEMKPYVSTTGSPMYYAARIAKEKHPDAKIVFVGPCVAKRKEVRRDDAVDYILTFEEVGSILDGMDIQLEQVNSFSILHTSVREAHGFAQAGGVMGAVKAYLKEEADKINAIQVSDINKKNIALLRACAKTGKAAGQFIEVMACEGGCITGPSTHNDIVSGRRQLAQELLKRKESYETMDR	not soluble
